From the Human Domainome abundance scans (Beltran et al. 2025)

B1: Intersectin-2, residues 1129 to 1183; numbered along this chain, Q9NZM3 (parent)
chain: VCQVIAMYDYAANNEDELSFSKGQLINVMNKDDPDWWQGEINGVTGLFPSNYVKM
B2: Zinc finger homeobox protein 3, residues 2147 to 2202; numbered along this chain, Q15911 (parent)
chain: RPRTRITDDQLRVLRQYFDINNSPSEEQIKEMADKSGLPQKVIKHWFRNTLFKERQ

Variants of: B1
Experiment: abundance fitness (aPCA) (normalised: wild type 0, dead -1); higher = more abundant; growth selection in yeast, the domain comes from the species named
Settings: Homo sapiens

Abundance fitness: each site, then its substitutions
M55: T -0.06; L -0.095; W -0.255; S 0.007; V -0.103; R -0.088; G -0.097; Q -0.09; A 0.079; K -0.233; E 0.009
K54: P -0.507; N -0.08; E -0.032; F -0.148; R 0.099; S -0.055; M -0.154; I -0.123; C -0.12; T 0.014; A -0.119; G -0.172; W -0.388; V -0.161; Q -0.049; Y -0.104; H -0.068; D -0.05; L -0.177
Y52: C -0.042; L 0.037; P -0.544; H 0.009; M -0.002; D -0.575; R -0.019; N -0.107; S -0.066; W -0.139; T -0.065; G -0.122; K 0.082; F 0.15; I -0.023; E -0.192
V53: A -0.071; P -0.905; K -0.902; H -0.477; E -0.666; R -0.703; C -0.054; G -0.116; W -1.11; M -0.379; Q -0.564; I 0.065; L -0.623; T 0.03
N51: Y -0.067; T -0.034; P -0.038; S -0.02; Q -0.081; W -0.121; R -0.026

Variants of: B2
Experiment: as above
Settings: Homo sapiens

Abundance fitness, by site and new letter:
R1: F -0.385; L -0.303; S -0.399; G -0.247; I -0.433; C -0.134; T -0.271; N 0.078; M -0.573; P -0.165; Y 0.022; W -0.979; E -0.832; A -0.652
R15: Q -0.045; M -0.023; A -0.23; W -0.125; H 0.099; S -0.067; Y -0.127; D -0.29; F -0.152; K -0.074; P -0.898; L -0.244; G -0.256; V -0.226; T -0.023; E -0.048
T4: G -0.256; V -0.13; I -0.02; S -0.191; Y -0.005; H -0.549; R -0.393; D 0.029; N 0.134; K -0.16; W -1.13; P -0.159; F 0.125; L -0.11; M 0.13
I6: Y -0.123; R -0.727; T -0.448; L 0.179; S -0.46; D -0.484; F -0.052; V -0.084; N -0.401; Q -0.529; H -0.241; G -0.48; C -0.4; K -0.332; W -0.477; E -0.408; P -0.108
P2: R 0.127; G -0.005; E 0.184; L 0.086; H 0.012; I 0.105; N 0.28; D 0.38; S 0.102; V 0.018; Y -0.057; A -0.134; W -0.679; Q 0.215; T 0.279; C -0.608; M 0.171
D9: Y -0.148; K 0.046; G -0.068; S 0.098; C 0.158; W -0.171; R -0.143; P -0.074; T 0.038; Q 0.018; A 0.088; M -0.082; V -0.172; L -0.106; F -0.013; I -0.176
Q10: I -0.464; Y -0.626; P -0.741; N -0.477; T -0.357; L -0.453; D -0.308; M -0.27; H 0.025; A -0.263; K -0.359; C -0.381; W -0.718; F -0.626; R -0.605; E -0.394; G -0.602
Q16: D -0.025; F -0.196; K 0.092; R 0.001; P -0.242; N -0.174; S 0.122; I -0.469; L -0.091; M -0.01; H -0.101; E -0.045; A -0.065; G 0.008
R12: N -0.061; M 0.077; S 0.018; V 0.04; L -0.085; I 0.046; D -0.21; T -0.205; Y -0.4; H -0.128; A -0.122; G -0.067; W -0.456; F -0.193; P -0.477; K 0.051; C -0.067; Q -0.082
L14: W -0.721; K -1.03; N -1.22; F -0.064; H -0.666; A -0.951; D -0.932; Q -1.13; G -0.876; I -0.217; E -0.947; Y -1.02; R -0.982; M 0.058; T -0.942; S -0.998; V -0.49; P -1.05
L11: Y -0.297; S -0.161; D -0.182; G -0.088; R 0.034; Q -0.01; C -1.12; A -0.019; M -0.04; P -0.962; V -0.252; T -0.026; H -0.399; K 0.095; E 0.142; N -0.019; I -0.126; F -0.216
V13: P -0.587; Q 0.043; T -0.044; F -0.012; G -0.415; C -0.149; E -0.01; A -0.22; H -0.199; S -0.033; N -0.227; Y -0.037; L 0.055; W 0.003; K -0.054; I 0.097; R -0.243
R5: Q -0.027; H 0.074; D 0.235; I 0.148; C 0.076; E 0.155; F 0.08; M 0.138; S 0.088; V 0.129; W -0.054; T 0.137; N 0.201; L 0.143; K 0.093; G -0.023; A -0.051; P 0.127
T7: S 0.054; P -0.086; N -0.204; V -0.208; L -0.273; K -0.336; E -0.133; C -0.367; H -0.336; R -0.174; G -0.2; F -0.432; A -0.024; Y -0.388; M -0.162; I -0.596; Q -0.253
D8: N -0.211; I -0.122; H 0.026; G -0.063; Y -0.215; E -0.012; P 0.149; M -0.096; L -0.028; W -0.277; C 0.054; V -0.05; Q 0.061; S 0.02; A -0.022; T -0.001; R -0.226; F -0.204
R3: Q -0.062; E 0.184; T 0.197; M 0.293; D 0.215; P -0.108; K -0.25; N 0.016; V 0.006; Y -0.085; W -0.57; G 0.143; H 0.172; S 0.034; F -0.275; C -0.426; L -0.014
